In one series the test system is SAN 16A (synthetic). Briefly: EMSA. (In general: A gel shift assay detects complexes by their altered migration in electrophoresis.)
The test system of series [1] is HUM 17A (VZ+472) (synthetic). Briefly: EMSA. To be noted: F3 printed RSDNLTZ, listing RSDNLTQ.
For another series, the system named is GATA82Z678 (synthetic). Briefly: EMSA.
The subject of series [2] is VOP 30A-4 (VZ+42/+530, mVZ+509) (synthetic). Briefly: EMSA. To be noted: 170 mM KCl, 1.7 mM MgCl2, Zn.
In the next series the test system is RAT 24A (synthetic). Briefly: EMSA.
For series [3], the system named is VG 8A (VZ-475) (synthetic). Briefly: EMSA.
A further series relates to HP38 4A (synthetic). Briefly: EMSA.
In another series the target is VEGF 1D (synthetic) (UniProt P08047). Briefly: EMSA.
The target of a further series is VEGF 1A (synthetic) (UniProt P08047). Briefly: EMSA.
For another series, the target named is VEGF 1* (synthetic) (UniProt P08047). Briefly: EMSA.
In series [4] the target is VEGF 1 (VZ-8) (synthetic) (UniProt P08047). Briefly: EMSA.
A further series concerns the target HBV 3 (synthetic) (UniProt P08047). Briefly: EMSA.
The target in series [5] is ZEN-7A 1 (VZ-573) (synthetic) (UniProt P08047). Briefly: EMSA.
The next series has as its target VEGF 1C (synthetic) (UniProt P08047). Briefly: EMSA.
For series [6], the system named is PDF 5A (VZ+590) (synthetic). Briefly: EMSA.
A further series has as its system EP10A (synthetic). Briefly: EMSA.
For series [7], the system named is VG10A/8A-VP16 (synthetic). Briefly: cell_activity. To be noted: mouse VEGF promoter reporter activation in mouse cells.
Series [8] concerns mVZ+57 (VG10A/8A, MVG) (synthetic). Briefly: EMSA. To be noted: text printed as Kds of 0.031 nM for the designed ZFPs; 100 mM KCl, 1 mM MgCl2, Zn.

VG 8A (VZ-475) (synthetic), sequence (chain, as listed by the source): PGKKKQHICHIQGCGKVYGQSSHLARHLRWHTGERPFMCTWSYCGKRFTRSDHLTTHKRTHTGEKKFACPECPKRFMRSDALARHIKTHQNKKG
PDF 5A (VZ+590) (synthetic), sequence (chain, as listed by the source): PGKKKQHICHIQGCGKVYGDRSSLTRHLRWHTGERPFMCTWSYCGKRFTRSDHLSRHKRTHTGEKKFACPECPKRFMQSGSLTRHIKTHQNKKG
GATA82Z678 (synthetic), sequence (chain, as listed by the source): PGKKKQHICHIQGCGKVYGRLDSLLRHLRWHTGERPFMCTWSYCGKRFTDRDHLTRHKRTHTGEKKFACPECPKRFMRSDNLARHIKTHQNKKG
SAN 16A (synthetic), sequence (chain, as listed by the source): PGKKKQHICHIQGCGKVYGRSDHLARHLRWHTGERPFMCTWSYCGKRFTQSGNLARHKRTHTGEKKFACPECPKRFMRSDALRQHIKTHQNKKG
VOP 30A-4 (VZ+42/+530, mVZ+509) (synthetic), sequence (chain, as listed by the source): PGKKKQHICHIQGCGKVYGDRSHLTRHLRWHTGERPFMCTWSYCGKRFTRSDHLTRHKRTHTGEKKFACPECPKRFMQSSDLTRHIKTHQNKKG
HUM 17A (VZ+472) (synthetic), sequence (chain, as listed by the source): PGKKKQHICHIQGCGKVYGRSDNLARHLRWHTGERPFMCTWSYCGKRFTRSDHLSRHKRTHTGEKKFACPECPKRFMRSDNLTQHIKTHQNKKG
RAT 24A (synthetic), sequence (chain, as listed by the source): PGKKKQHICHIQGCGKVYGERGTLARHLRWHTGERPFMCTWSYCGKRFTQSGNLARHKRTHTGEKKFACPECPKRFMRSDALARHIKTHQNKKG
EP10A (synthetic), sequence (chain, as listed by the source): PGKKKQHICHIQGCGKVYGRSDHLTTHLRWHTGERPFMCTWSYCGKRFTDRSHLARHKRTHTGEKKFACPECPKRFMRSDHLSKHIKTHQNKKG
HP38 4A (synthetic), sequence (chain, as listed by the source): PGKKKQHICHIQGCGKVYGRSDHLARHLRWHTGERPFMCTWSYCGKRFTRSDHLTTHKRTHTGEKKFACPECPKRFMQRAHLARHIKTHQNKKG

Broadly, the Kd is the free concentration of one partner at which half of the binding sites on the other are occupied at equilibrium, for simple one-to-one binding. A lower Kd goes with tighter binding. “AKGGAAGGG (double strand) [SAN 16A target]”: in the series with SAN 16A (synthetic), the dissociation constant Kd was 1.03 nM.
“ARGGGGGAG (double strand) [HUM 17A target]”: the Kd in series [1] was < 0.02 nM.
Turning to “GAGKGKGYG (double strand) [GATA82Z678 target]”, in the series on GATA82Z678 (synthetic), the Kd is 1.8 nM.
With “GCTGGGGGCK (double strand) [VZ+42/+530 target]”, the Kd in series [2] is < 0.02 nM.
Consider “GDGGAAGHC (double strand) [RAT 24A target]”, for which, in the series with RAT 24A (synthetic), the dissociation constant Kd is < 0.02 nM.
“GDGTGGGGN (double strand) [VG 8A target]”: the dissociation constant (Kd) in [3] was determined as 0.35 nM.
In the case of “GGDTGGGGG (double strand) [HP38 4A target]”, the equilibrium dissociation constant (Kd) in the series with HP38 4A (synthetic) was determined as 0.74 nM.
In the case of “GGGGAGGMT (double strand) [VEGF 1D target]”, in the series with VEGF 1D (synthetic), the Kd is 2 nM.
Regarding “GGGGAGGVK (double strand) [VEGF 1 / 1* / 1A target]”, the Kd was 0.2 nM in the series with VEGF 1A (synthetic), 3 nM with VEGF 1* (synthetic) and 2.83 nM in series [4].
“GGGGGAGGW (double strand) [HBV 3 target]” displayed a Kd with HBV 3 (synthetic) of 30 nM.
In the case of “GGGGGHGCT (double strand) [ZEN-7A 1 target]”, the Kd in series [5] was 0.63 nM.
In turn, “GGGGVGGAT (double strand) [VEGF 1C target]” came in with a Kd in the series with VEGF 1C (synthetic) of 1 nM.
“GYAGGGGCC (double strand) [PDF 5A target]” registered an equilibrium dissociation constant (Kd) in series [6] of 0.23 nM.
“KGGGGCTGG (double strand) [EP10A target]” gave a dissociation constant Kd with EP10A (synthetic) of 0.35 nM.
For “TGAGCGGCGGCAGCGGAG (double strand) [VG10A/8A target]”, the activity in [7] stood at 29 fold.
Take “TGAGCGGCGGCAGCGGAGC (double strand) [mVZ+57 target]”: in [8], the dissociation constant Kd is < 0.031 nM.

The record behind these values is patent publication US20030021776.
